# T1: AcrVIA1-3xFLAG
# T1 sequence: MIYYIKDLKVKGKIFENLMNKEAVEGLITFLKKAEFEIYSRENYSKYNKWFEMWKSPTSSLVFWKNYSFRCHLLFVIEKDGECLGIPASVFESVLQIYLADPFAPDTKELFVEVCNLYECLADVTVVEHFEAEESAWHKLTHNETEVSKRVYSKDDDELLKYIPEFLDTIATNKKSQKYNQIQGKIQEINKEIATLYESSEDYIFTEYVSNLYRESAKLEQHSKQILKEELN
# T2: AcrVIA1
# T2 sequence: T1 sequence
# T3: AcrVIA1-3xFLAG
# T3 chain: T1 sequence
# T4: AcrVIA1
# T4 chain: T1 sequence
# B1: Leptotrichia buccalis Cas13a (protein)
# chain: MKVTKVGGISHKKYTSEGRLVKSESEENRTDERLSALLNMRLDMYIKNPSSTETKENQKRIGKLKKFFSNKMVYLKDNTLSLKNGKKENIDREYSETDILESDVRDKKNFAVLKKIYLNENVNSEELEVFRNDIKKKLNKINSLKYSFEKNKANYQKINENNIEKVEGKSKRNIIYDYYRESAKRDAYVSNVKEAFDKLYKEEDIAKLVLEIENLTKLEKYKIREFYHEIIGRKNDKENFAKIIYEEIQNVNNMKELIEKVPDMSELKKSQVFYKYYLDKEELNDKNIKYAFCHFVEIEMSQLLKNYVYKRLSNISNDKIKRIFEYQNLKKLIENKLLNKLDTYVRNCGKYNYYLQDGEIATSDFIARNRQNEAFLRNIIGVSSVAYFSLRNILETENENDITGRMRGKTVKNNKGEEKYVSGEVDKIYNENKKNEVKENLKMFYSYDFNMDNKNEIEDFFANIDEAISSIRHGIVHFNLELEGKDIFAFKNIAPSEISKKMFQNEINEKKLKLKIFRQLNSANVFRYLEKYKILNYLKRTRFEFVNKNIPFVPSFTKLYSRIDDLKNSLGIYWKTPKTNDDNKTKEIIDAQIYLLKNIYYGEFLNYFMSNNGNFFEISKEIIELNKNDKRNLKTGFYKLQKFEDIQEKIPKEYLANIQSLYMINAGNQDEEEKDTYIDFIQKIFLKGFMTYLANNGRLSLIYIGSDEETNTSLAEKKQEFDKFLKKYEQNNNIKIPYEINEFLREIKLGNILKYTERLNMFYLILKLLNHKELTNLKGSLEKYQSANKEEAFSDQLELINLLNLDNNRVTEDFELEADEIGKFLDFNGNKVKDNKELKKFDTNKIYFDGENIIKHRAFYNIKKYGMLNLLEKIADKAGYKISIEELKKYSNKKNEIEKNHKMQENLHRKYARPRKDEKFTDEDYESYKQAIENIEEYTHLKNKVEFNELNLLQGLLLRILHRLVGYTSIWERDLRFRLKGEFPENQYIEEIFNFENKKNVKYKGGQIVEKYIKFYKELHQNDEVKINKYSSANIKVLKQEKKDLYIRNYIAHFNYIPHAEISLLEVLENLRKLLSYDRKLKNAVMKSVVDILKEYGFVATFKIGADKKIGIQTLESEKIVHLKNLKKKKLMTDRNSEELCKLVKIMFEYKMEEKKSEN
# Experiments:
# AcrVIA1-3xFLAG [1] = test system: T1, AcrVIA1-3xFLAG
# AcrVIA1 [2] = test system: T2, AcrVIA1
# AcrVIA1-3xFLAG [3] = molecular target: T3, AcrVIA1-3xFLAG
# AcrVIA1 [4] = molecular target: T4, AcrVIA1
Molecule,cis- and trans-RNA cleavage in vitro (FIG. 2A-B) (AcrVIA1-3xFLAG [1]),cis-RNase activity: cleavage of radiolabeled target RNA in vitro (AcrVIA1 [2]),"nonspecific cleavage of labeled non-target RNA, AcrVIA1 added before target RNA (""Acr first"" lane) (AcrVIA1 [2])",trans-cleavage of a labeled non-target RNA upon addition of unlabeled protospacer RNA in vitro (AcrVIA1 [2]),"cis-RNA cleavage of spc2-target RNA by L. buccalis Cas13a (10 nM) with AcrVIA1-3xFLAG at 400, 100, 10 or 1 nM (AcrVIA1-3xFLAG [3])","cis-RNA cleavage of spc2-target RNA by L. buccalis Cas13a (10 nM) with AcrVIA1 at 400, 100, 10 or 1 nM (AcrVIA1 [4])"
L. seeligeri Cas13a-His6,confirmed that both are active in vivo ... and in vitro (FIG. 2A-B),"In the presence of excess AcrVIA1, however, target RNA cleavage was inhibited","if the AcrVIA1 inhibitor is added to the reaction containing Cas13 before adding the target RNA, then AcrVIA1 prevents target RNA binding and no Cas13 activity is observed",AcrVIA1 inhibited Cas13a-mediated trans-cleavage of a labeled non-target RNA,–,–
B1,–,–,–,–,AcrVIA1 does not inhibit Leptotrichia buccalis Cas13a,Addition of AcrVIA1 had no effect on protospacer RNA cleavage by purified L. buccalis Cas13a^crRNA

# Source: patent US20230193409A1
